In assay [1] the target is T1, Tau(pS422) fragment SEQ ID NO: 03 (human).
T1 sequence (peptide, phosphoserine at position 7 (position 422 of SEQ ID NO, 01)): SIDMVDXPQLATLAD
The assay can be described thus: SPR capture assay (Example 10), 25 C.

Assay [2] has the same target. Briefly: ELISA. On the technique in general: In an ELISA, binding on a coated surface is turned into a signal by an enzyme label.

Data on two molecules can be found in US20180079804A1.

B1: VH76A6/VL145B12 (antibody, V domains shown)
VH: EVQVLESGGGLVQPGGSLRLSCAVSGFSLSNSAINWVRQAPGKGLEWVGYIAVSGNTYYASWAKGRFTISRDNSKNTVYLQMNSLRAEDTAVYYCGKSNIWGQGTLVTVSS
VL: AQVMTQSPSSLSASVGDRVTITCRSSQSVRSNKLAWFQQKPGQPPKRLIYAASNLDFGVPSRFSGSGSGTEFTLTISSLQPEDFATYYCLGYFDSSADIVAFGGGTKVEIK
As a reminder, the Kd is the constant that tells how readily two partners part at equilibrium. As usually defined, the koff is the first-order rate constant of dissociation. One may read the kon as the second-order rate constant of association. Low readings indicate slower complex formation, high ones faster complex formation. As a reminder, the EC50 is the concentration at which the effect is half-maximal. Higher therefore signals lower potency in that assay. Turning to B1, in assay [1], the Kd was found to be 2.61 nM, the koff turned out to be 0.000628 s⁻¹ and the kon stood at 240000 M⁻¹ s⁻¹. This molecule also returned an EC50 in assay [2] of 0.0403 µg/mL.

B2: VH00/VL00 (antibody, V domains shown)
VH: QSVEESGGRLVTPGTPLTLTCTVSGFSLSSNAINWVRQAPGKGLEWIGYIAVSGNTYYASWAKGRFTISKASTTVDLKMTSPTAEDTGTYFCGKSNIWGPGTLVTVSL
VL: AQVLTQTTSPVSAAVGSTVTISCQSSQSVRTNKLAWFQQKPGQPPKRLIYSASTLDFGVPSRFSASGSGTQFTLTISDVQCDDAATYYCLGYFDCSIADCVAFGGGTEVVVK
Regarding B2, in assay [1], the Kd was determined as 1.96 nM, the koff is 0.000265 s⁻¹ and the kon is 135000 M⁻¹ s⁻¹. In addition, in assay [2], the EC50 amounted to 0.04 µg/mL.
